Laboratory results published in US20230322927A1 (Regeneron, published 2023).

Key:
human EGFR on cells [1] = biological target: T1, human EGFR on cells (human, UniProt P00533 25-1210); assay: flow cytometry titration on H292 cells (EGFR-expressing)
T1 construct: whole, on cells; One molecule is used for both endogenous EGFR on human tumour cell lines and EGFR overexpressed on Ba/F3 cells; also called hEGFR; EGFR+ cells (PEO1, A375, 22RV1, CAPAN2, SW1990, H292, CASKI)
Method: (§1) Flow cytometric analysis was utilized to determine binding of anti-EGFR X anti-CD28 bispecific antibodies to several cancer cell lines (A375, 22RV1, PEO1, CAPAN2, SWi1990, H292), Human and Cynomolgus T cells and Jurkat cells followed by detection with a labeled anti-human secondary IgG antibody. […] After incubation, the cells were washed twice with cold PBS containing 1% filtered FBS and a Fluorophore-conjugated anti-human secondary antibody was added to the cells and incubated for an additional 30 minutes. Live/dead dye was added to Human and Cynomolgus T cells incubations. Wells containing no antibody or secondary only were used as a control.

human EGFR on cells [2] = biological target: T1, human EGFR on cells; assay: flow cytometry titration on 22RV1 cells
Method: (§2) After incubation, the cells were washed twice with cold PBS containing 1% filtered FBS and a Fluorophore-conjugated anti-human secondary antibody was added to the cells and incubated for an additional 30 minutes. Live/dead dye was added to Human and Cynomolgus T cells incubations. Wells containing no antibody or secondary only were used as a control.
(§3) After incubation with EGFR expressing cells, cells were washed, re-suspended in 200 μL cold PBS containing 1% filtered FBS and analyzed by flow cytometry on a BD FACS Canto II.

human EGFR on cells [3] = biological target: T1, human EGFR on cells; assay: flow cytometry titration on PEO1 cells (EGFR-expressing)
Method: as §1

[4] = biological target: T2, hEGFR(ECD).CPGG.MMH6 (REGN355) (human, UniProt P00533 25-647); assay: SPR (Biacore 4000) at 25 C; antibody captured on anti-human Fc, hEGFR.mmH injected
T2 construct: Soluble extracellular domain with a myc-myc-hexahistidine tag; also called hEGFR.mmH; hEGFR.mmh
Method: Association was monitored for 5 minutes, and the dissociation of hEGFR.mmH in HBS-EP running buffer was monitored for 10 minutes. All of the binding kinetics experiments were performed at 25° C. Kinetic association (kₐ) and dissociation (kd) rate constants were determined by fitting the real-time sensorgrams to a 1:1 binding model using Scrubber 2.0c curve fitting software.

human EGFR on cells [5] = biological target: T1, human EGFR on cells; assay: flow cytometry titration on A375 cells
Method: as §2, §3

human EGFR on cells [6] = biological target: T1, human EGFR on cells; assay: flow cytometry titration on CASKI cells; CASKI cells
human EGFR on cells [7] = biological target: T1, human EGFR on cells; assay: flow cytometry titration on CAPAN2 cells (EGFR-expressing)
Method: as §1

human EGFR on cells [8] = biological target: T1, human EGFR on cells; assay: flow cytometry titration on SW1990 cells (EGFR-expressing)
Method: as §1

hCD28.mFc (REGN2012) = biological target: T3, hCD28.mFc (REGN2012) (human, UniProt P10747 19-152, limits assumed); assay: SPR (Biacore T-200) at 25 C; hCD28.mFc captured on anti-mouse Fc, antibody injected
T3 construct: also called Human CD28-mFc; hCD28 with a C-terminal mouse Fc tag; not shown: C-terminal mouse Fc tag

human EGFR on cells [9] = biological target: T1, human EGFR on cells; assay: flow cytometry titration on PEO1 cells
Method: as §2, §3

human EGFR on cells [10] = biological target: T1, human EGFR on cells; assay: flow cytometry titration on A375 cells (EGFR-expressing)
Method: as §1

human EGFR on cells [11] = biological target: T1, human EGFR on cells; assay: cell-based or functional assay
human EGFR on cells [12] = biological target: T1, human EGFR on cells; assay: flow cytometry titration on 22RV1 cells (EGFR-expressing)
Method: as §1

human CD28 on cells = human CD28 on cells (human, UniProt P10747 19-220); assay: cell-based or functional assay

EC50 (human EGFR on cells [1]): 0.674 nM
EC50 (human EGFR on cells [2]): 11.9 nM
EC50 (human EGFR on cells [3]): 0.667 nM
Kd [4]: 3.75 nM
koff [4]: 0.000774 s⁻¹
kon [4]: 206000 M⁻¹ s⁻¹
t½ [4]: 14.9 min
EC50 (human EGFR on cells [5]): 0.874 nM
EC50 (human EGFR on cells [6]): 2.35 nM
EC50 (human EGFR on cells [7]): 1.29 nM
EC50 (human EGFR on cells [8]): 2.96 nM
Kd (hCD28.mFc (REGN2012)): 10 nM
koff (hCD28.mFc (REGN2012)): 0.00265 s⁻¹
kon (hCD28.mFc (REGN2012)): 265000 M⁻¹ s⁻¹
t½ (hCD28.mFc (REGN2012)): 4.4 min
EC50 (human EGFR on cells [9]): 5.86 nM
EC50 (human EGFR on cells [10]): 1.48 nM
Inhibition [%] of BaF3/hEGFR proliferation in presence of 0.5 nM hEGF (human EGFR on cells [11]): 28.5%
Inhibition [%] of BaF3/hEGFR proliferation in presence of 0.5 nM hTGFβ (human EGFR on cells [11]): -7.3%
EC50 (human EGFR on cells [12]): 0.554 nM
IL-2 Release MAX (pg/mL), human CD3+ T cells + NCI-H292 cells, with 20 nM IsoC-1 (human CD28 on cells): 13.2 pg/mL
IL-2 Release MAX (pg/mL), human CD3+ T cells + NCI-H292 cells, with 20 nM cemiplimab (human CD28 on cells): 36.7 pg/mL
Proliferation EC50 [M], human CD3+ T cells + NCI-H292 cells, with 20 nM IsoC-1 (human CD28 on cells): 2.29e-11 M
Proliferation EC50 [M], human CD3+ T cells + NCI-H292 cells, with 20 nM cemiplimab (human CD28 on cells): 3.13e-11 M
Proliferation MAX (CPM), human CD3+ T cells + NCI-H292 cells, with 20 nM IsoC-1 (human CD28 on cells): 1660 CPM
Proliferation MAX (CPM), human CD3+ T cells + NCI-H292 cells, with 20 nM cemiplimab (human CD28 on cells): 2340 CPM
B1: REGN6323 (bispecific antibody, human IgG4 S228P, kappa)
heavy 1: QVQLQESGPGLVKPSETLSLTCTVSDDSIISYYWSWIRQPPGKGLEWIGYIYYSGRTNYNPSLKSRVTISVDTSKNQVSLKLNSVIAADTAVYYCARVSEDSYYHYGMDVWGQGTTVTVSSASTKGPSVFPLAPCSRSTSESTAALGCLVKDYFPEPVTVSWNSGALTSGVHTFPAVLQSSGLYSLSSVVTVPSSSLGTKTYTCNVDHKPSNTKVDKRVESKYGPPCPPCPAPPVAGPSVFLFPPKPKDTLMISRTPEVTCVVVDVSQEDPEVQFNWYVDGVEVHNAKTKPREEQFNSTYRVVSVLTVLHQDWLNGKEYKCKVSNKGLPSSIEKTISKAKGQPREPQVYTLPPSQEEMTKNQVSLTCLVKGFYPSDIAVEWESNGQPENNYKTTPPVLDSDGSFFLYSRLTVDKSRWQEGNVFSCSVMHEALHNHYTQKSLSLSLGK
heavy 2: QVQLQESGPGLVKPSETLSLTCTVSGGSISSYYWSWIRQPPGKGLEWIGYIYYSGITHYNPSLKSRVTISVDTSKIQFSLKLSSVTAADTAVYYCARWGVRRDYYYYGMDVWGQGTTVTVSSASTKGPSVFPLAPCSRSTSESTAALGCLVKDYFPEPVTVSWNSGALTSGVHTFPAVLQSSGLYSLSSVVTVPSSSLGTKTYTCNVDHKPSNTKVDKRVESKYGPPCPPCPAPPVAGPSVFLFPPKPKDTLMISRTPEVTCVVVDVSQEDPEVQFNWYVDGVEVHNAKTKPREEQFNSTYRVVSVLTVLHQDWLNGKEYKCKVSNKGLPSSIEKTISKAKGQPREPQVYTLPPSQEEMTKNQVSLTCLVKGFYPSDIAVEWESNGQPENNYKTTPPVLDSDGSFFLYSRLTVDKSRWQEGNVFSCSVMHEALHNRFTQKSLSLSPGK
light: not shown
notes: EGFR arm from mAb13006P2, CD28 arm from mAb14226; also called bsAb6323; EGFRxCD28
